According to publication PMC12322997, “Asxl1 regulates optic cup development through interaction with Lhx2 and epigenetic modulation of Wnt signaling” (Animal Cells and Systems, 2025):

Target: T1, GST-mAsxl1 (aa 1193-1514) (mouse, UniProt P59598 1193-1514)
T1 construct: also called GST-fused Asxl1 protein; source: E. coli, purified (glutathione-Sepharose beads)
T1 sequence (looked up): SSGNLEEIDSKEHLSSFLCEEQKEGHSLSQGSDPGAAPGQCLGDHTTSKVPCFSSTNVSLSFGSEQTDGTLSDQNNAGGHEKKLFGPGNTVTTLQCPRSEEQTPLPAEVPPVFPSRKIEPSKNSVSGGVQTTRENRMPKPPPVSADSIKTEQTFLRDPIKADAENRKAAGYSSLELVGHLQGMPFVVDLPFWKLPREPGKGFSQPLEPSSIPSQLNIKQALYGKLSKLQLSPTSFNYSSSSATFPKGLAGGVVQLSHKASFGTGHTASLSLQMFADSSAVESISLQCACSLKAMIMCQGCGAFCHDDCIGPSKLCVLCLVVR
Test: pull-down; GST pull-down; GST-mAsxl1 on glutathione-Sepharose, His-hLHX2 purified on Ni-NTA; bound protein detected by anti-His Western blot
Conditions: both partners purified

B1: His-hLhx2 (aa 42-221) (domain or fragment, human, UniProt P50458 42-221, looked up)
chain: MPSISSDRAALCAGCGGKISDRYYLLAVDKQWHMRCLKCCECKLNLESELTCFSKDGSIYCKEDYYRRFSVQRCARCHLGISASEMVMRARDLVYHLNCFTCTTCNKMLTTGDHFGMKDSLVYCRLHFEALLQGEYPAHFNHADVAAAAAAAAAAKSAGLGAAGANPLGLPYYNGVGTVQ
notes: LHX2, human (hLHX2), residues 42-221; also called His-tagged Lhx2 protein; source: E. coli, purified (Ni-NTA agarose beads)
B1: binds.
